The results in this text go back to patent US20170355774A1 (Regeneron, published 2017).

Where a chain is given by its changes, count along the chain named. Numbers in names are those of the source.

The target of one test is T1, hGITR.mmh (human).
T1 construct: soluble monomeric construct; also called human (h) GITR.mmh; monomeric human GITR
T1 chain: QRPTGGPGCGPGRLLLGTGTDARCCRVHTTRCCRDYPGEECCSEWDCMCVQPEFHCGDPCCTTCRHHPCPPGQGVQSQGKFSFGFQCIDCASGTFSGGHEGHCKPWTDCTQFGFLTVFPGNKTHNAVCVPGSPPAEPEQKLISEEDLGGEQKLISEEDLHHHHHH
The test is described as follows: SPR 37C, mAb capture. The procedure: (§1) (Table 3). […] GITR proteins were injected over the sensor surface at a flow rate of 30 μL/minute. All Biacore binding studies were performed in a buffer composed of 0.01M HEPES pH 7.4, 0.15M NaCl, 3 mM EDTA, 0.05% v/v Surfactant P20 (HBS-ET running buffer). Antibody-reagent association was monitored for 4 minutes while dissociation in HBS-ET running buffer (10 mM HEPES, 150 mM NaCl, 3 mM EDTA, 0.05% (v/v) Surfactant P20, pH 7.4) was monitored for 10 minutes. Kinetic association (kₐ) and dissociation (kd) rate constants were determined by fitting the real-time sensorgrams to a 1:1 binding model using Scrubber 2.0c curve fitting software. Binding dissociation equilibrium constants (KD) and dissociative half-lives (t ½) were calculated from the kinetic rate constants as: KD [M]=kd/kₐ; and t_{1/2}(min)=(ln 2/(60*kd). Results are summarized in Table 3.

Another test deals with T2, mfGITR.mmh (Macaca fasicularis).
T2 construct: soluble monomeric construct; also called Macaca fasicularis (mf) GITR.mmh; cynomolgus GITR protein
T2 chain: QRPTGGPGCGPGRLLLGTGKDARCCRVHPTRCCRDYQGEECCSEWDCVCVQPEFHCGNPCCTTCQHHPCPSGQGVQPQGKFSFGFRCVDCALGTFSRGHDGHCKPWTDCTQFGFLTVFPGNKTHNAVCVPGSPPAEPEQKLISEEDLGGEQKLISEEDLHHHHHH
The test is described as follows: SPR 37C, mAb capture. The procedure:
as §1

A further test deals with T3, hGITR.mFc (human).
T3 construct: soluble dimeric construct with mouse Fc; also called dimeric human GITR
T3 chain: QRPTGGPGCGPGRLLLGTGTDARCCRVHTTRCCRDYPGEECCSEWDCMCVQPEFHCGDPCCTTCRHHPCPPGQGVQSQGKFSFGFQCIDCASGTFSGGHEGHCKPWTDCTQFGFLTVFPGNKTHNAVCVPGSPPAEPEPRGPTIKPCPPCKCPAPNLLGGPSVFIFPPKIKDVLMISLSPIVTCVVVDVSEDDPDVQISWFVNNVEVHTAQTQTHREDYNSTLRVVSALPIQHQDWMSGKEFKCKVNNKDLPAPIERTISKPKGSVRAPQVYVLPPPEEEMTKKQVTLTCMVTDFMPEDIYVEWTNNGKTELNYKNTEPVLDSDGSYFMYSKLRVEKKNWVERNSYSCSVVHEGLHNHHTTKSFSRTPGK
Briefly: SPR 37C, mAb capture. On the procedure:
as §1

In test [1] the target is T4, human GITR (amino acids M1-V241, NCBI Accession #NP_004186.1) expressed on cells (human, UniProt Q9Y5U5 26-241).
T4 construct: also called hGITR; hGITR/HEK293-D9
T4 sequence: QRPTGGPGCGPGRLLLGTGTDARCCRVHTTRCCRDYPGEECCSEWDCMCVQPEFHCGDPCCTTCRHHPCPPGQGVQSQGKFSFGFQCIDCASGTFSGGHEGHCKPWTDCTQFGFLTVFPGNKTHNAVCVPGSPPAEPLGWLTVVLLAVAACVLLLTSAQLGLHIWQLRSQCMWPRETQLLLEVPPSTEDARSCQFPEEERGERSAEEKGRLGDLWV
The test is described as follows: ECL cell binding, hGITR/HEK293-D9. On the procedure:
Nonspecific binding sites were blocked with 2% BSA (w/v)+PBS for 1 h at room temperature (RT). Next, serial dilutions of anti-GITR antibodies, ranging from 1.7 pM to 100 nM, were added to cells for 1 h at RT. Plates were then washed to remove unbound antibodies (AquaMax2000 plate washer, MSD Analytical Technologies) and plate-bound antibodies were detected with a SULFO-TAG™ conjugated anti-human kappa light chain IgG antibody (Jackson Immunoresearch) for 1 h at RT.
Following washes, luminescent signals were recorded with a SECTOR Imager 6000 (MSD) instrument. Direct binding signals (relative light units, RLU) were analyzed as a function of the antibody concentration and data were fitted with a sigmoidal (four-parameter logistic) dose-response model using GraphPad Prism™ software. […] The signal detected with 100 nM antibody binding to the hGITR expressing cells versus parental cells was recorded as an indication of intensity and specificity of GITR binding.

For test [2], the target named is T4, human GITR (amino acids M1-V241, NCBI …). Briefly: cell-based or functional assay.

B1: H4H14530P (antibody, human IgG4, V domains shown)
VH: QLQLQESGPGLVKPSETLSLTCTVSGGSISSTNHYWGWIRQPPGKGLEWIGNVYYIGNAYYNPSLKTGVTFSVDTSKNQFSLNLRSVTAADTAMYYCARLSNWNFLDLWGQGTLVTVSS
VL: EIVMTQSPATLSVSPGERATLSCRASQSISSNLAWYQQKPGQAPRLLIYGASTRATGIPARFSGSGSGTEFTLTISSLQSEDFAVYYCQQFNNWLSFGGGTKVEIK
notes: human IgG4 (H4H)
In the test with hGITR.mmh, B1 displayed a Kd of 5.06 nM, an off-rate constant (koff) of 0.00138 s⁻¹, a kon of 272000 M⁻¹ s⁻¹ and a t½ of 8.4 min. For the same molecule, in the test with mfGITR.mmh, binding was characterised by a dissociation constant (Kd) of 2.55 nM, the dissociation rate constant (koff) turned out to be 0.000611 s⁻¹, the on-rate constant (kon) stood at 240000 M⁻¹ s⁻¹ and the t½ is 18.9 min. Further, in the test with hGITR.mFc, the Kd was found to be 0.63 nM, the dissociation rate constant (koff) came to 0.000185 s⁻¹, the association rate constant (kon) is 293000 M⁻¹ s⁻¹ and the t½ came to 62.6 min. In test [1], the “Average Signal (RLU) at 100 nM” value was 4200 RLU and a half-maximal effect (EC50) was put at 85 nM.

B2: H1H14503P (antibody, human IgG1, V domains shown)
VH: QVQLVESGGGVVQPGRSLRLSCEASGFTFSNYGFHWVRQAPGKGLDWVAVIWYAGSNKFYVDSVQGRFTISRDNSKQILFLQMNSLRAEDSAVYYCVRGGILGIDYYSGMDVWGQGTTVTVSS
VL: AIQMTQSPSSLSASVGDRVTITCRASQDIRNDLGWYQQRPGKAPKFLIYSTSSLQSGVPSRFSGSGSGTDFILTISSLQPEDFATYYCLQSHNYPWTFGHGTKVEIK
notes: human IgG1 (H1H)
In the test with hGITR.mmh, B2 displayed a Kd of 1.39 nM, a koff of 0.000739 s⁻¹, a kon of 532000 M⁻¹ s⁻¹ and a t½ of 15.6 min. In addition, in the test with mfGITR.mmh, the dissociation constant (Kd) amounted to 20.9 nM, the koff was found to be 0.0056 s⁻¹, the on-rate constant (kon) is 268000 M⁻¹ s⁻¹ and the t½ turned out to be 2.1 min. In the test with hGITR.mFc, this molecule registered a Kd of 0.137 nM, a koff of 0.000154 s⁻¹, a kon of 1.12e+06 M⁻¹ s⁻¹ and a t½ of 75 min. Also, in test [1], the “Average Signal (RLU) at 100 nM” value stood at 5880 RLU and the EC50 was 0.21 nM. Further, in test [2], the “% Activation, NF-kB-Luc, non-anchored” value was determined as 50%; the “% Blocking, NF-kB-Luc, non-anchored” value came out at 90%; the “EC50, hGITR activation, NF-kB-Luc, non-anchored” value (shortened to “EC50 … non-anchored”) amounted to 1.4 nM; the “IC50, blocking of hGITRL stimulation, NF-kB-Luc, non-anchored” value (shortened to “IC50, blocking … non-anchored”) amounted to 0.6 nM.

B3: H1H14495P (antibody, human IgG1, V domains shown)
VH: QVQLVESGGGAVQPGTSLRLSCAASGFTFSSFGMHWVRQAPGKGLEWVSVIWYEGSNKYYADSVKGRFTISRDNSRNTLSLQMDSLRVEDTAVYYCARGGELGVNYYYDMDVWGQGTTVTVSS
VL: DIQMTQSPSSLSASVGDRVTITCRASQDIKNDLGWFQQKAGKAPKRLFYATSSLQSGVPSRFSGSGSGTEFTLTISSLQPEDFATYYCLQVHSYPRTFGQGTKVEIK
notes: human IgG1 (H1H)
In the case of B3, in the test with hGITR.mmh, binding was put at a Kd of 2.45 nM, the koff turned out to be 0.00127 s⁻¹, the kon was found to be 517000 M⁻¹ s⁻¹ and the t½ was 9.1 min. In the test with mfGITR.mmh, the Kd was determined as 24.5 nM, the koff is 0.00723 s⁻¹, the kon is 296000 M⁻¹ s⁻¹ and the t½ was 1.6 min. In the test with hGITR.mFc, this molecule registered a Kd of 0.0968 nM, a koff of 0.00011 s⁻¹, an on-rate (kon) of 1.14e+06 M⁻¹ s⁻¹ and a t½ of 105 min. Also, in test [1], the “Average Signal (RLU) at 100 nM” value was found to be 6470 RLU and it took 0.43 nM to reach a half-maximal effect (EC50). Besides, in test [2], the “% Activation, NF-kB-Luc, non-anchored” value was found to be 30%; the “% Blocking, NF-kB-Luc, non-anchored” value is 80%; the “EC50 … non-anchored” value stood at 1.3 nM; the “IC50, blocking … non-anchored” value is 0.7 nM.

B4: H1H14474P (antibody, human IgG1, V domains shown)
VH: QVQLVESGGGVVQPGRSLRLSCAASGFTFSSYGMDWVRQAPGKGLEWVAVIWYPGSNKYYADSVKGRFTVSRDNSKNTLYLQMNSLRAEDTAVYYCARDGELGLDYYSGMDVWGQGTTVTVSS
VL: DIQMTQSPSSLSASVGDRVTITCRASQGIRNDLNWYQQKPGKAPKRLINGASSLQSGVPSRFSGSGSGTEFTLTISSLQPEDFATYYCLQLNSYPRTFGQGTKVEIK
notes: human IgG1 (H1H)
With B4, in the test with hGITR.mmh, the dissociation constant Kd was determined as 1.96 nM, the koff was found to be 0.00116 s⁻¹, the kon is 591000 M⁻¹ s⁻¹ and the t½ stood at 9.9 min. For the same molecule, in the test with mfGITR.mmh, the Kd is 28 nM, the koff was determined as 0.00951 s⁻¹, the kon worked out at 339000 M⁻¹ s⁻¹ and the t½ turned out to be 1.2 min. Besides, in the test with hGITR.mFc, the Kd came to 0.107 nM, the koff stood at 0.00013 s⁻¹, the on-rate constant (kon) came out at 1.21e+06 M⁻¹ s⁻¹ and the t½ was 89.2 min. In addition, in test [1], the “Average Signal (RLU) at 100 nM” value was 6230 RLU and the EC50 was determined as 0.28 nM. In test [2], the “% Activation, NF-kB-Luc, non-anchored” value worked out at 30%; the “% Blocking, NF-kB-Luc, non-anchored” value came to 80%; the “EC50 … non-anchored” value came to 1.2 nM; the “IC50, blocking … non-anchored” value was 0.8 nM.

B5: H1H14524P (antibody, human IgG1, V domains shown)
VH: QVQLVESGGGVAQPGRSLSLSCAASGFTFSDYGMHWVRQAPGKGLEWVAVIWYAGSNKYYADSVKDRFTISRDNSKNTLYLQMRSLRVEDTAVYYCARGGELRLDYYSGLDVWGQGTTVTVSS
VL: B4 VL with I21V, N31S, N34G, N49Y, G50A, L54F, Q79H, L91S, S93N, R96W
notes: human IgG1 (H1H)
Regarding B5, in the test with hGITR.mmh, the Kd was 3.62 nM, the koff is 0.00147 s⁻¹, the kon amounted to 405000 M⁻¹ s⁻¹ and the t½ amounted to 7.9 min. In addition, in the test with mfGITR.mmh, the dissociation constant Kd was 158 nM, the koff was determined as 0.0189 s⁻¹, the kon was found to be 120000 M⁻¹ s⁻¹ and the t½ was 0.6 min. In the test with hGITR.mFc, this molecule had a dissociation constant (Kd) of 0.146 nM, a koff of 0.000135 s⁻¹, a kon of 922000 M⁻¹ s⁻¹ and a t½ of 85.6 min. Further, in test [1], the “Average Signal (RLU) at 100 nM” value stood at 5740 RLU and a half-maximal response (EC50) required 0.21 nM. In test [2], the “% Activation, NF-kB-Luc, non-anchored” value is 40%; the “% Blocking, NF-kB-Luc, non-anchored” value is 80%; the “EC50 … non-anchored” value stood at 2.2 nM; the “IC50, blocking … non-anchored” value came out at 0.7 nM.

B6: H1H14523P (antibody, human IgG1, V domains shown)
VH: QVQLVESGGGVVQPGRSLRLSCEASGFTFSSYGMHWVRQAPGKGLEWVAVIWYSESNKYYTDSMKGRLTISRDNSKNTLYLQMNSLRAEDTAVYYCARGGLLGKYYYYGMDVWGQGTTVTVSS
VL: B4 VL with T20I, G28D, N34G, N49Y, G50A, Y86F, R96Y, V104L
notes: human IgG1 (H1H)
Take B6: in the test with hGITR.mmh, the affinity, expressed as Kd, was 8.63 nM; the koff was found to be 0.00186 s⁻¹; the kon is 216000 M⁻¹ s⁻¹; the t½ came out at 6.2 min. Further, in the test with mfGITR.mmh, the Kd is 88.5 nM, the off-rate (koff) was determined as 0.0109 s⁻¹, the kon was 123000 M⁻¹ s⁻¹ and the t½ stood at 1.1 min. In addition, in the test with hGITR.mFc, the Kd was determined as 0.216 nM, the dissociation rate constant (koff) was determined as 0.00012 s⁻¹, the kon amounted to 555000 M⁻¹ s⁻¹ and the t½ turned out to be 96.3 min. Also, in test [1], the “Average Signal (RLU) at 100 nM” value came to 6350 RLU and the EC50 amounted to 0.4 nM. For the same molecule, in test [2], the “% Activation, NF-kB-Luc, non-anchored” value was found to be 40%; the “% Blocking, NF-kB-Luc, non-anchored” value worked out at 70%; the “EC50 … non-anchored” value stood at 2.5 nM; the “IC50, blocking … non-anchored” value was 0.9 nM.
